Data from the supplement of paper PMC7125110.
± gives the standard error. For part of these data: Fewer inactive variants are shown than the library holds.

B1: glmS ribozyme (parent)
chain: AUAAAAGCGCCAGAACUACAGAAAUGUAGUUGACGAGGAGGAGGUUUAUCGAAUUUUCGGCGGAUGCCUCCAAA

Legend:
Conditions in all cases: with glucosamine-6-phosphate
glucosamine-6-phosphate [1] = variants of: B1; test: kcat; higher = faster cleavage; RNA array
Procedure, shortened: (§1)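 The measurements used barcoded ribozyme variants on sequenced MiSeq chips, transcribed in situ by E. coli RNA polymerase and tracked at 37 °C with a hybridised Cy3 probe. Glucosamine-6-phosphate, 40 μM to 10 mM in HEPES/KCl/Mg(OAc)2 buffer, was flowed in while tiles were imaged over ~14 h. Baseline-normalised signals, also normalised to non-cleaving reference variants, gave per-tile medians that were fit to one- or two-exponential decays for kobs. kcat and KM resulted from weighted Michaelis–Menten fits across concentrations.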

glucosamine-6-phosphate [2] = variants of: B1; test: self-cleavage kobs at 10000 uM GlcN6P; higher = faster cleavage; RNA array
Procedure, shortened: as §1

glucosamine-6-phosphate [3] = variants of: B1; test: self-cleavage kobs at 40 uM GlcN6P; higher = faster cleavage; RNA array
Procedure, shortened: as §1

glucosamine-6-phosphate [4] = variants of: B1; test: self-cleavage kobs at 160 uM GlcN6P; higher = faster cleavage; RNA array
Procedure, shortened: as §1

glucosamine-6-phosphate [5] = variants of: B1; test: self-cleavage kobs at 640 uM GlcN6P; higher = faster cleavage; RNA array
Procedure, shortened: as §1

glucosamine-6-phosphate [6] = variants of: B1; test: self-cleavage kobs at 2500 uM GlcN6P; higher = faster cleavage; RNA array
Procedure, shortened: as §1

glucosamine-6-phosphate [7] = variants of: B1; test: KM; higher = weaker cofactor use; RNA array
Procedure, shortened: as §1

| Variant | kcat (glucosamine-6-phosphate [1]) [s⁻¹] | self-cleavage kobs at 10000 uM GlcN6P (glucosamine-6-phosphate [2]) [s⁻¹] | self-cleavage kobs at 40 uM GlcN6P (glucosamine-6-phosphate [3]) [s⁻¹] | self-cleavage kobs at 160 uM GlcN6P (glucosamine-6-phosphate [4]) [s⁻¹] | self-cleavage kobs at 640 uM GlcN6P (glucosamine-6-phosphate [5]) [s⁻¹] | self-cleavage kobs at 2500 uM GlcN6P (glucosamine-6-phosphate [6]) [s⁻¹] | KM (glucosamine-6-phosphate [7]) [µM] |
| --- | --- | --- | --- | --- | --- | --- | --- |
| C50A G51A | < 1e-05 | < 1e-05 | – | – | – | – | – |
| A52U U65C | < 1e-05 | – | < 1e-05 | – | – | – | – |
| C50G G62U U69G | 8.66e-05 ± 2.1e-05 | 7.41e-05 ± 1.6e-05 | 3.4e-05 ± 1.2e-05 | 0.000155 ± 4.5e-05 | 7.83e-05 ± 2.3e-05 | 0.000155 ± 4.7e-05 | – |
| C50U C70A | 2.87e-05 ± 6.9e-06 | – | – | – | 3.61e-05 ± 1.4e-05 | 3.43e-05 ± 1.5e-05 | – |
| G51C U69A | < 1e-05 | – | < 1e-05 | – | – | – | – |
| U49G C70G | 4.12e-05 ± 2.8e-06 | 4.11e-05 ± 6e-06 | – | 3.09e-05 ± 1.3e-05 | 4.22e-05 ± 9e-06 | 3.6e-05 ± 8e-06 | – |
| C50G U69C | 0.000107 ± 2.1e-05 | 9.16e-05 ± 1.9e-05 | 0.000118 ± 3.6e-05 | 9.81e-05 ± 2.6e-05 | 9.95e-05 ± 1.7e-05 | 0.000193 ± 3.4e-05 | – |
| A52U C70G | 7.01e-05 ± 1.1e-05 | 5.93e-05 ± 7.6e-06 | – | – | 5.38e-05 ± 1.1e-05 | 8.15e-05 ± 8.6e-06 | – |
| C50U G66U C70G | 4.59e-05 ± 1.9e-05 | – | – | – | – | – | – |
| C50G C61G | 0.000119 ± 1.7e-05 | 9.9e-05 ± 1e-05 | 8.54e-05 ± 1.1e-05 | 0.000156 ± 1.9e-05 | 0.000115 ± 1.6e-05 | 0.000161 ± 2e-05 | – |
| C50G C61A | 0.000122 ± 1.7e-05 | 0.000113 ± 9e-06 | 9.57e-05 ± 9.4e-06 | 0.00018 ± 2.4e-05 | 0.000166 ± 1.7e-05 | 9.96e-05 ± 1.4e-05 | – |
| C50A G59U | < 1e-05 | < 1e-05 | < 1e-05 | < 1e-05 | < 1e-05 | – | 181 ± 24 |
| C50A C71U | 1.86e-05 ± 6.3e-07 | 1.86e-05 ± 8.6e-06 | – | – | – | – | 296 ± 82 |
| A52U G66U | 4.61e-05 ± 3.4e-06 | 4.26e-05 ± 1.2e-05 | < 1e-05 | – | – | 3.74e-05 ± 1.8e-05 | – |
| A52U G66A | 0.000745 ± 0.00034 | 0.000185 ± 2.9e-05 | – | – | – | 5.37e-05 ± 1.4e-05 | – |
| U49G G59A | < 1e-05 | – | < 1e-05 | < 1e-05 | – | – | – |
| G51A U54A G59A C68G | 2.9e-05 ± 7.6e-06 | – | – | – | – | – | – |
| A52U C67G | 0.000281 ± 3.9e-05 | 0.000235 ± 2e-05 | – | – | 6.34e-05 ± 7.8e-06 | 0.000118 ± 1.4e-05 | 2620 ± 740 |
| G51A G62U | < 1e-05 | – | – | < 1e-05 | – | – | – |
| A52U U55C | 0.000619 ± 0.00011 | 0.000288 ± 4.2e-05 | – | – | – | 0.000125 ± 3.2e-05 | – |
| A52U U55A | 0.000247 ± 3.7e-05 | 0.000191 ± 1.8e-05 | – | – | 3.67e-05 ± 1.3e-05 | 0.000147 ± 1.8e-05 | 2490 ± 990 |

| Variant | kcat (glucosamine-6-phosphate [1]) [s⁻¹] | self-cleavage kobs at 10000 uM GlcN6P (glucosamine-6-phosphate [2]) [s⁻¹] | self-cleavage kobs at 40 uM GlcN6P (glucosamine-6-phosphate [3]) [s⁻¹] | self-cleavage kobs at 160 uM GlcN6P (glucosamine-6-phosphate [4]) [s⁻¹] | self-cleavage kobs at 640 uM GlcN6P (glucosamine-6-phosphate [5]) [s⁻¹] | self-cleavage kobs at 2500 uM GlcN6P (glucosamine-6-phosphate [6]) [s⁻¹] | KM (glucosamine-6-phosphate [7]) [µM] |
| --- | --- | --- | --- | --- | --- | --- | --- |
| C50G G60U C61U U69A | 7.69e-05 ± 1.1e-05 | – | – | 0.000102 ± 3.2e-05 | 7.91e-05 ± 2.6e-05 | 7.43e-05 ± 1e-05 | – |
| A52C C70G | 3.19e-05 ± 1.1e-05 | – | – | – | 3.3e-05 ± 1e-05 | 4.57e-05 ± 1.4e-05 | – |
| A52C C70A | 1.34e-05 ± 4e-06 | – | – | – | – | – | – |
| A52G C58G | 1.7e-05 ± 1.7e-06 | – | – | – | – | – | – |
| G51U U54A | < 1e-05 | – | – | – | – | – | – |
| A52C C67A C68G | 2.5e-05 ± 1.2e-05 | – | – | – | – | – | – |
| C50G U55G C67G | 2.81e-05 ± 6.9e-06 | – | – | – | – | – | – |
| A52G U54C | 0.00197 ± 7e-05 | 0.00153 ± 0.00019 | 2.55e-05 ± 1.1e-05 | 0.000111 ± 1.8e-05 | 0.000379 ± 5.7e-05 | 0.000985 ± 0.00015 | 2700 ± 150 |
| U49G C71G | 7.69e-05 ± 4.8e-06 | 7.21e-05 ± 9.4e-06 | – | – | 4.8e-05 ± 8.8e-06 | 6.83e-05 ± 1.3e-05 | 427 ± 120 |
| A52C C68U | 1.28e-05 ± 5.9e-07 | – | < 1e-05 | – | – | – | 249 ± 86 |
| G51U C70G | 3.09e-05 ± 1.2e-05 | – | – | – | 5.38e-05 ± 1.4e-05 | 4.11e-05 ± 1e-05 | – |
| A52G C68A | 2.06e-05 ± 5.7e-06 | – | – | – | – | – | – |
| C50U A53C | 1.18e-05 ± 1.3e-06 | – | – | – | – | – | – |
| C50U A53G | 6.82e-05 ± 1.3e-06 | 6.42e-05 ± 1.5e-05 | – | – | 3.45e-05 ± 1.6e-05 | 5.41e-05 ± 1.5e-05 | 642 ± 54 |
| A52C U57G | 9.64e-05 ± 1.4e-05 | 7.59e-05 ± 1.6e-05 | – | < 1e-05 | – | 5.77e-05 ± 1.5e-05 | 2300 ± 960 |
| G51U C68A | 2.77e-05 ± 5e-06 | – | – | – | – | – | – |
| A52G U65G | 0.000271 ± 0.00011 | 0.00022 ± 3e-05 | – | – | 5.52e-05 ± 9.3e-06 | 8.89e-05 ± 9.9e-06 | – |
| A52G U65C | 3.32e-05 ± 1.6e-06 | – | – | – | – | – | 248 ± 83 |
| U49G C50U A64U C67G C70A | 3.56e-05 ± 1.6e-05 | – | – | – | 4.15e-05 ± 2e-05 | – | – |
| A52U C67G C70G | 2.5e-05 ± 7.5e-06 | – | – | – | – | – | – |
| C50U G66A | 0.000123 ± 5.1e-05 | 4.11e-05 ± 9.9e-06 | – | – | – | – | – |
